We go through seven sequences from the DeepSol protein solubility set.

The data set is described as follows: soluble on expression in E. coli; label from the status in PepcDB or PDB records.
In the case of “MASMTGGQQMGRGMAGPEIVKLKKILREKAVPPGTEVPLDVMRKGMEKVAFKAADDIQVEQVTVAGCAAEWVRAPGCQAGKAILYLHGGGYVMGSINTHRSMVGEISRASQAAALLLDYRLAPEHPFPAAVEDGVAAYRWLLDQGFKPQHLSISGDSAGGGLVLAVLVSARDQGLPMPASAIPISPWADMTCTNDSFKTRAEADPMVAPGGINKMAARYLNGADAKHPYASPNFANLKGLPPLLIHVGRDEVLLDDSIKLDAKAKADGVKSTLEIWDDMIHVWHAFHPMLPEGKQAIVRVGEFMREQWAALAAALEHHHHHH”, the “soluble on expression in E. coli” value is “soluble”. Under “MGSDKIHHHHHHMKAVIFDDFGSPDVLRIADVQRPVATTATVLVKVMAVAVNHVDTFVRSGTFKTALAAPHVAGRDLVGEVVASSQPDFQIGDQVWTNSMGYEGRMGATAEYVAVPTDRLYHVPDGVAPMPLVAAVHSAATAAIVLNDVMEICSGQTLLIEGAAGNVGRKLIQLAHQMGVTVVITASPRDFARCQQLGSTACYDYHAGFADQLTTDQWTFDHVIDTSGRVPLAINLALLRLGGQVTLITAPQDNQFEFPVRQFYMSQQRITGFVISHATVDQLAQAASRLNRAFSAGLLLDDQVSQRYFKDAAQCHAQLEAGTDHHQRFVLLPS” stands “not soluble”. For “LSKGTRDRKNIYVSPEEMARQQRFIDEIKELNYRKEVKTGKKKLYCLNTFGCQMNEHDSEKLAGMLAEMGYAETDNVNESDLVIYNTCCVRENAELKVYGHLGMLKPLKNQKPDLVIAVCGCMMQQPEVVEHIKKTYSHVDLIFGTHNLYKFPELLYSAMDSQTTVVDVWDCDGQIAENVAIERKDGVKAWVTVMYGCNNFCTYCIVPYVRGRERSRSMDDILEEVRMLGRQGFKEITLLGQNVNSYGKDIGDGTSFAELIREVNKIPGIERIRFTTSHPKDLSDDLIYAMRDCEKVCEHLHLPFQAGSTRILKLMNRKYTKEDYINLVAKIKENIPDIALTTDIIVGFPGETEEDFSDTLDILEKVRFDNAYTFLYSKRTGTPAAKMEDQVPEEVKKERFQRLLETQNRISKEINDTFLGKVVEVLVEGVSKTNDKIFTGRTRGNKVVNFEADASLIGKLVNVRINTVKTWSLEGSIVR” the value was “soluble”. As to “MAGKKTITINGVEMEASEEQTVLQLLNNSSIEVPQVCYHPSLGPIETCDTCIVSINGELKRSCSAELKDGDVIDTLSPDVKKAQVIGMDKILYNHELYCTVCDYNNGGCEIHNTVKEMKINHQSIPFDHKPYHKDESHPFYRYDPDQCILCGRCVEACQDVQVTETLTIDWERKRPRVIWDNDVPINESSCVSCGHCSTVCPCNAMMEKGMEGEAGYLTGINNETLRPMIEITKGVETGYGSILAISDMESAMRDERIKKTKTVCTYCGVGCSFDVWTKGRDILKVEPQEEAPANGISTCVKGKFGWDFVNSEERLTKPLIREGDHFREAEWEEALLLIASKFTELKEAFGPDSLAFITSSKCTNEESYLMQKLARGVIGTNNVDNCSRYCQSPATAGLFRTVGYGGDSGSITDIAQADLVLIIGSNTSESHPVLSTRIKRAHKLRGQKVIVADIRKHEMAERSDLFVQPRAGSDIVWLNAIAKYLIENGKADERFLRERVNGRDEYVKSLAPYTLEYAEEKTGIDQETLIQMAEMIGQADSVCALWAMGVTQHIGGSDTSTAISNLLLVTGNYGKPGAGSYPLRGHNNVQGASDFGSMPDRLPGYEKVTDEQVRQKYERVWGVPLPKEPGMTNHEMIEKIHSGQLKAMYVKGEEMGLVDSNINHVHAAYEKLDFFVVQDIFLSRTAEFADVVLPASPSLEKEGTFTNTERRIQRLYQVFEPLGESKPDWQIIMEVANKLGAGWLYEHPADIMEEAAKLSPIYAGVTYERLEGYNSLQWPVNADGKDSPLLFTERFPFPDGKAILYPVQWTEPKEFGEEYDIHVNNGRLLEHFHEGNLTYKSKGISEKTPEVFLEISPELAAERGIQDGTLVRLTSPFGNVKVKCLITDRVKGKEVYLPMNDSGEAAINLLTGSHADKDTDTPAYKETSAKMEILKHDGISPLPKINHRNGNPQPQIGVQVHKKWARKDYIFPGDAVKRGM”, the “soluble on expression in E. coli” value is listed as “not soluble”. In the case of “MAAAGARPVELGFAESAPAWRLRSEQFPSKVGGRPAWLGAAGLPGPQALACELCGRPLSFLLQVYAPLPGRPDAFHRCIFLFCCREQPCCAGLRVFRNQLPRKNDFYSYEPPSENPPPETGESVCLQLKSGAHLCRVCGCLGPKTCSRCHKAYYCSKEHQTLDWRLGHKQACAQPDHLDHIIPDHNFLFPEFEIVIETEDEIMPEVVEKEDYSEIIGSMGEALEEELDSMAKHESREDKIFQKFKTQIALEPEQILRYGRGIAPIWISGENIPQEKDIPDCPCGAKRILEFQVMPQLLNYLKADRLGKSIDWGILAVFTCAESCSLGTGYTEEFVWKQDVTDTP”, the “soluble on expression in E. coli” value was “soluble”.

With “PFSWMKFVVISRTDLEENGREILIHECAHIRKHHSWDLLIADICIFFQWFNPGAWLLKQELQNIHEYEADEAVINEGINARDYQLLLI”, the “soluble on expression in E. coli” value is given as “not soluble”. Under “TDPDADRLGAAVRMPNGDYQVLTGNQLGSIMIHYILEAHQQAGTLPQNAAVLKSIVSSELATAIAEKCNTKMFNVLTGFKFIAEKIQQYEEDHSQTFMFGFEESYGYLVKPFVRDKDAIQALVLLAEVAAFYKKQGKTLYDGLQDIFEEFGYFEE” stands “not soluble”.
